From patent US20190046600A1 (published 2019)
Square brackets hold non-standard residues; d marks the D form. Phe(4-guanidino) = N=C(N)Nc1ccc(C[C@H](N)C(=O)O)cc1

Target: Lactate dehydrogenase A [LDHA] (human, UniProt P00338 2-332)
Assay: cell-based or functional assay

| IC50 of LDH activity (Abcam LDH activity kit, lysates of NCI-H460 cells treated for 24 or 96 h) [µM] | Binder |
| --- | --- |
| 16 | PRGPRPVWWRRWWRRWW (cyclic peptide (cyclo-[...])) [HILR-025 (cyclo-[Pro-Arg-Gly-Pro-Arg-Pro-Val-Trp-Trp-Arg-Arg-Trp-Trp-Arg-Arg-Trp-Trp])] |
| 22 | cyclo(PRGPRPVWW[Phe(4-guanidino)][Phe(4-guanidino)]WW[Phe(4-guanidino)][Phe(4-guanidino)]WW) [HILR-030 (cyclo-[Pro-Arg-Gly-Pro-Arg-Pro-Val-Trp-Trp-Gpa-Gpa-Trp-Trp-Gpa-Gpa-Trp-Trp])] |
